Reference: PMC3797442, “Analysis of the role of Arabidopsis class I TCP genes AtTCP7, AtTCP8, AtTCP22, and AtTCP23 in leaf development”

Experiments:
AtTCP7 = AtTCP7 (Arabidopsis thaliana, UniProt Q9FMX2 1-250); experiment: EMSA; LightShift Chemiluminescent EMSA Kit (Pierce), manufacturer's instructions; buffer, salt, pH and temperature not stated; conditions: protein: recombinant; tags: N-terminal GST (pDEST15); chain copies: 2; label: biotin (both strands); blunt
AtTCP22;AtTCP23 = AtTCP22;AtTCP23 (Arabidopsis thaliana;Arabidopsis …, UniProt Q9C7G4;Q9LQF0 1-375;1-341, |); experiment: EMSA; heterodimer; LightShift Chemiluminescent EMSA Kit (Pierce), manufacturer's instructions; buffer, salt, pH and temperature not stated; conditions: protein: recombinant;recombinant; tags: N-terminal GST (pDEST15);N-terminal GST (pDEST15); copies: 1;1; label: biotin (both strands); blunt
AtTCP7;AtTCP23 = AtTCP7;AtTCP23 (Arabidopsis thaliana;Arabidopsis …, UniProt Q9FMX2;Q9LQF0 1-250;1-341, |); experiment: as above; conditions: protein: recombinant;recombinant; tags: N-terminal GST (pDEST15);N-terminal GST (pDEST15); copies: 1;1; label: biotin (both strands); blunt
AtTCP7;AtTCP22 = AtTCP7;AtTCP22 (Arabidopsis thaliana;Arabidopsis …, UniProt Q9FMX2;Q9C7G4 1-250;1-375, |); experiment: as above; conditions: protein: recombinant;recombinant; tags: N-terminal GST (pDEST15);N-terminal GST (pDEST15); copies: 1;1; label: biotin (both strands); blunt

Measured: binding result

Chain of AtTCP22;AtTCP23 (Q9C7G4 whole entry, chain 1 of 2): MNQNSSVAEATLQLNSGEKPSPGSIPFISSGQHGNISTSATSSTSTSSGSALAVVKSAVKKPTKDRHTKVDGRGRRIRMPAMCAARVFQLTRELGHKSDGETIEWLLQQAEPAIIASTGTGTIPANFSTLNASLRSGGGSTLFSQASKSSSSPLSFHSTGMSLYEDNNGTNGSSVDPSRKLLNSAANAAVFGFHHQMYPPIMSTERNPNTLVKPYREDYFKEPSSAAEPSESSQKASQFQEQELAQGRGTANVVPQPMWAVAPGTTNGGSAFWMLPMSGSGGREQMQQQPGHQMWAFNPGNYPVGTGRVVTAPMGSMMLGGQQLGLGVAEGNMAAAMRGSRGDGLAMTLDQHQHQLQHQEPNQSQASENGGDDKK
Chain of AtTCP22;AtTCP23 (Q9LQF0 whole entry, chain 2 of 2): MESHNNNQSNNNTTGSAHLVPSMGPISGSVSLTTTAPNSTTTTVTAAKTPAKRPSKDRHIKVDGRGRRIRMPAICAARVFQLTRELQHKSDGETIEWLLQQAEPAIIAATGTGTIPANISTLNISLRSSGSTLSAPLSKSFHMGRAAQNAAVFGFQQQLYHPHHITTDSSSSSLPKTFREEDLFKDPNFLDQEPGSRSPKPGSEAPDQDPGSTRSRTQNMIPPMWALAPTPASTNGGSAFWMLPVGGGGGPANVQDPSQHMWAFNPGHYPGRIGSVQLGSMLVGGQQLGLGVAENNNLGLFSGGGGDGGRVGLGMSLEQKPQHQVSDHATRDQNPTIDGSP
Chain of AtTCP7 (Q9FMX2 whole entry): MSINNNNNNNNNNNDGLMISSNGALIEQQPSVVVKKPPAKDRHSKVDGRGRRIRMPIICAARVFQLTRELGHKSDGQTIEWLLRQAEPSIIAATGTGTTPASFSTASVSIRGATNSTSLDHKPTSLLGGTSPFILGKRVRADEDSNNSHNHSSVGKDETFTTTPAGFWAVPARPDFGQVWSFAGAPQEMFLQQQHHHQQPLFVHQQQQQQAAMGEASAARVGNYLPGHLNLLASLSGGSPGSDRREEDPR
Chain of AtTCP7;AtTCP23 (Q9FMX2 whole entry, chain 1 of 2): as the sequence (Q9FMX2 whole entry) above
Chain of AtTCP7;AtTCP23 (Q9LQF0 whole entry, chain 2 of 2): as the sequence (Q9LQF0 whole entry, chain 2 of 2) above
Chain of AtTCP7;AtTCP22 (Q9FMX2 whole entry, chain 1 of 2): as the sequence (Q9FMX2 whole entry) above
Chain of AtTCP7;AtTCP22 (Q9C7G4 whole entry, chain 2 of 2): as the sequence (Q9C7G4 whole entry, chain 1 of 2) above

B1: STM promoter K-box probe, 76 bp (dsDNA)
DNA 1: AACTATCACTATTTAGAATTTTCAATGTGGAAAAGGAAGCTGATTGTTGAAGCATAAATCCCGGGAGACCACTTTT
DNA 2: AAAAGTGGTCTCCCGGGATTTATGCTTCAACAATCAGCTTCCTTTTCCACATTGAAAATTCTAAATAGTGATAGTT
binds: AtTCP7 | AtTCP22;AtTCP23 | AtTCP7;AtTCP23 | AtTCP7;AtTCP22
